Assay results taken from the nanobody polyreactivity screen of Harvey et al. (2022).

Assay: yeast display, Sf9 membrane polyspecificity reagent, FACS + sequencing; frameworks hold sequencing errors
In short: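 A synthetic nanobody library was expressed on Saccharomyces cerevisiae BJ5465 by galactose induction for 36–48 hours. The library was stained for 1 hour at 4 °C with 10% biotinylated, detergent-solubilized Sf9 membrane reagent and enriched with streptavidin microbeads before FACS. Low and high (top ~1%) gates were set on anti-HA fluorescence for expression and streptavidin fluorescence for reagent binding, and each polyreactivity label reflects the gate of origin.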

Row | Sequence | polyreactivity (PSR sort gate)
1 | QVKLVESGGGLVKAGGSIRLSCAASGFTFGVYAKGSYRQAPAKERELVAAISTTVGSTYYADSVKGRFTISRDNAKNTVYLQMNSLKPEVTAVYYCSAEYTGYINYYIYEYWGQGTQVTVSS | low polyreactivity
2 | QVQLVESGGGLVQAGGSLRLICAASGFIFGYNARGWYRQAPGKERELVAAINWSGGRTYYADSVKGRFTISRDNAKKTVYLQMNRLKPEDTAVDYCNGDGSRRYNYWGQGTQVTVSS | low polyreactivity
3 | QVQLVESGGGLVQAGGSLSLICAASGGTFERYAMGWYRQAPGKERELVAAISRSGGRTYYADSVKGRFTISRDNAKNSVYLQMNSLKPEDTAVYYCNSLGRYRMDYWGQGTQVTVSS | high polyreactivity
4 | QVQLVESGGGLVQAGGSLRLSCAASGSTSYNAMGWYRQPPGKERELVAAITSSGGRTYYADSVKGRFTISRDNAKNTVYLQMNSLKPEDTAVYYCNAPTSARRQGKDYGYWGQGTQVTVSS | high polyreactivity
5 | QVQLVESGGGFVQAGGSLRLSCAASGSIFYYNAMGWYRQAPGKEREFVAAITTSAGSTYYADSVKGRFTISRDNEKNTVYLQMYRLKPEDTAVYYCAASPGRRRRPYASLFRYDYWGQGTQVTVSS | high polyreactivity
6 | QVQLVESGGGLVQAGVSLRLSCAASGFTFYYNAMGWYRQAPGKERELVAAINYSGGSTYYADSVKGRFTISRDNAKNTVYLQMNSLKPEDTAVYYCNAVGYSVFRRYNYWGQGTQVTVSS | high polyreactivity
7 | QVQLVESGGGLVQAGGSLRLSCAASGRTFRVYAMGWYRQAPGKERELVASITRGGGTYADSVKGRFTISRDNAKNTVSLQMNSLKPEDTAVYYCNADSRRRRIHYDYWGQGTQVTVSS | high polyreactivity
8 | QVQLVESGGGLVQAGGSLRISCAPSGRIFSYNAMGWYRPAPGKERELVAAINYSDDSTYYADSVKGRFTISRDNAKNTVYLQMNSLKPEDTAVYYCNADASSIVPSYDRPFDYWGQATQVTVSS | low polyreactivity
9 | QVQLVESGGRLVQAGGSLRLSCAASGIPFEYYAMGWYRQAPGKERELVAAIDTGGSTNYADSVKGRFTISRDNAKNTVYLQMNSLKPEDTAVYYCAADWSWWDGEDYHFEYDYWGQGTQVTVSS | low polyreactivity
10 | QVQLVESGGGLVQAGGSLRLSCAASGSTFQKYVMGWYRQAPGKERELVAAISINGVRTYYADSVKGRFTISRDYAKNTVYLQMNSLKPEDTAVFFCNNDTLIRRGSGRGYWGQGTQVNVSS | high polyreactivity
11 | PVQLVESGGGLVQEGGSLRLICAASGRTFYGYAMGCYRPAPGKEREFVAAINSSGGTTYYADSVKGRCTISRDNAKNTVYRAMNSVKPEDTAFSYCAAVYSRIRRWPGYNAYDYWGHGTQVTVSS | high polyreactivity
12 | QVQLVESGGGLVQAGGSLRLSGADSGLTFRRNAMGWYRQAPGNERELVAAIRTGGSTYYADSVKGRFTISRDNAKNTVYLQMNSLKPEDTAVYYCAARSLIGSRLVPMNFWGQGTQVTVSS | high polyreactivity
13 | QGQLVESGGGLVQAGGSLRLSCAASGRTFYYNGMGWYRQAPGKERELVATITNGGSTNYADSVKGRFTISRDNAKNTVYLQMNSLKPEDTAVYYCAKTLASDCYDYWGQGTQVTVSS | low polyreactivity
14 | QVQLVESGGGLVQAGGSLRLSCAASGFTAYGYAMGWYRQAPGQERELVAAISRSGGSTYYADSVKGRFTISRDNAKNTVYLQMYSLKPDDTAVYYCAVAVGREYVYRYYYWGQGTQVTVSS | high polyreactivity
15 | QVQLVESGRGLVQAGGSLRVSCAASGSILSINGMGWYRQAPGKERELVATIDGSDGSTFYADSVKGRFTISRDNAKNTVYLQMNSLKPEDTAVYYCAAENFWQTKEYDYWGQGTQVTVSS | low polyreactivity
16 | QVQLVESGGGLVQAGGSLRLSCAASGSIFTWYAMGWYRLAPGIDRELVAAITRGGSTYADSVTGRFTISRDNAKNTVYLQMNSLKPEDTAVYYCNAVYGVYDFNYWGQGTQVTVSS | low polyreactivity
17 | QVQLVESGGGLVQAGGSLRLSCAASGSTFVWYAMGWYRQAPGKESELVAVIDWSGGSTSYADSVKGRFTISRDNAKNTVYLQMNSLKPEDTAVYYCAAQLGVISRGNYWGQGTQVTVSS | low polyreactivity
18 | QVQLVESGGGLVQAGGSLRLSCAASGFTFYRYTMGWNRQAPGKERELVASITRRGGSTYYADSVKGRFTISRDNAKNTVYFQMNSLKPEDTAVYYCNAATPVWQSGTYEYWGQGTQVTVSS | high polyreactivity
19 | QVQLVESGGGLVQAGGSLRLSCAASGRTFYKYAMGWYRQAPGKERELVAVINWSGGRTYADSVKGRFTISRDNAKNTVYLQMNSLKPEDTAVYYCNAESYEFHRAWGDYDYWGQGTQVTVSS | low polyreactivity
20 | QVQLVESGGGLVQAGGSLRLSCAASGSIFRQYAMGWYRQAPGKERELVAAIRRGTSTYYADSVKGRFTISRDNAKNTVYLQMNSLKPEDTAVYYCAKHQHYPHYQPYWSRYDYWGQGTQVTVSS | low polyreactivity
21 | QVQLVESGGGLVQAGGSLRISCAASGSTFANYSMGWYRQAPGKERELVAVISVRGGSTYYADSVKGRFTISRDNAKNTVYLQMNSLKPEDTAVYYCAADASGPRRYDSWGQGTQVTVSS | high polyreactivity
22 | QVQLVESGGGLVQAGGSLRLSCAASGRIFWGYVMGWYRQAPGKERELVAAISSGGDTHYADSVKGRFTISRDNAKNTVYLQMNSLKPEDTAVYYCAKENQYYDSKVAGVLTGLYDYWGQGTQVTVSS | low polyreactivity

Row | Sequence | polyreactivity (PSR sort gate)
23 | QVQLVESGGGLVQAGGSLRLSCAASGRIFVHNVMGWYRQAPGKERELVAAITVSGGGTYYADSVKGRFTISRDNAKNTVYLQMNSLKQEDTAVYYCNAVPHPYDWGQGTQVTVSS | low polyreactivity
24 | QVQLVESGGGLVQAGGSLRLSCAASGSTFPGNAMGWYRQAPGKERELVAAITSTGTTYYADSVKGRFTISRDNAKNTVYLQMNSLKPEDSAVYYCNADRYPDPSTFDYWGQGTLVTVSS | low polyreactivity
25 | QHQLVESGGGLVQAGGSLRLSCAASGRTFYWNAMGWYRQAPGKERELVAGISNGGTTTYYADSVKGRFTISRDNAKNTVYLQMNSLKPEDTAVYYCAADIWYFDYDYWGQGTQVNVSS | high polyreactivity
26 | QDQLVESVGGLVQAGGSHRLSCAASGFTLKAYVMGWYRQAPGKERELVAAIRITGGRTYYADSVKGRFTISRDNAKNTVYLQMNSLKPQDTAVYYCNAVKGEPDDYVPFELDYWGQGTQVTVSS | high polyreactivity
27 | QVQLVETGGGLVQAGGSLRLSGAASGRIFWVNAMGWYRQAPGKERELVAVISRGGSTTYADSVKGRFTISRDNAKNTVYLKMNSLKPEDTAVYYCAADAYRHAFLYYGYDYLGQGTQVTVSS | low polyreactivity
28 | QVQLVESGGGLVQAGGSLRLSCAASGSTFYRYAMGWYRQAPGKERELVAAIDSSGGSTYYPDSVKGRFTISRDNAKNTVYLQMNSLKPEDTAVYYCATDLPPGGYDSWGQVTQVTVSS | low polyreactivity
29 | QVQLVESGGGLVQAGGSLPLTCAASGRIFGVYAMGWYRQAPGKERELVASISWSGSSTYYADSVKGRFTISRDNEKNTVYLQMNSLKPEDTAVYYCAADANHYRYGGGYWGQGTQVTVSS | low polyreactivity
30 | QVQLVESGGGLVQAAGSLRLSCAASGSTFQYYAMGWYRQAPGKERELVAAISASVDTTFYADSVKGRFTISRDNAKNTVYLQMNSLKPEDTAVYYCAKRYVDPLGSGTHGSWGQGTQVTVSS | low polyreactivity
31 | QVQLVESGGGLVQAGGSLRLSCAASGSIFRYYAMGWYRQAPGKERELVAAISRRGSSTYYPDSVKGRFTISRDNAKNTVYLQMNSLKPEDTAVYYCATAYRGRAWGYDYWGQGTQVTVSS | high polyreactivity
32 | QVQLVESGGGLVQAGGSLRISCAASGSNFSYYAMGWYRQAPGKEREFVAAISWSGGSTYYADSVKGRFTISRDNAKNTVYLQMNSLKPEDTAVYYCAAELSLSWLVPEVPYYYWGQGTQVTGSS | low polyreactivity
33 | QVQLVESGGGLVQAGGSLRLSCAASGSTFVRNAMGWYRQAPGKDRELVAAIRWRSGSTYYADSVKGRFTISRDNAKNTVYLQMNSLKPEDTAVYYCAKAFSRTTYRYDYWGQGTQVTVSS | high polyreactivity
34 | QVQLVESGGGLVQAGGSLRLSCAASGRIFSVNGMGWYRQAPGKERELVAAITYNGGRTYYADSVKGRITISRDNAKNTVYLQMNSLKPEDTAVYYCAVESVRHPLDWYYYWGQGTQVTVSS | low polyreactivity
35 | QVQLVESGGGLVQAGVSLRLSCAASGRTFGYNAMGWYRQAPGKERVVVAAITIGGSTNYADSVKGRFTISRDNAKNTVYLQMNSLKPEDTAVYYCAAYDTLLYWVEFYYWGQGTQVTVSS | low polyreactivity
36 | QVQLVESGGGLVQAGGSLRLSCAASGRIFARNALGWYRQAPGKEGELVARIRASGGSTYYADSVKGRFTISRDNAKNTVYLQMNSLKPEDTAVYYCNARTSSPYRVDYWGQGTQVTVSS | high polyreactivity
37 | QVQLVESWGGLVQEGRSLRLSCAASGYTFQRYNIRWYRPAPGKERELVAAINWSGGSTYYADSVKGRFTISRDNAMNTVYLQMIWLKPEDTAVYYFSRRYRDYGGYGYWGQGTQVSVSS | high polyreactivity
38 | QVQLVESGGGLVQAGGSLRLSCAASGSIFGFYAMGWYRQAPGKERELVASINWSGGSTYYADSVKGRFTISRDNAKNTVYLQMNSLKPEDTAVYYCNADQYHWYDYWGQGTQVTVSS | low polyreactivity
39 | QVQLVESGGGLVQAGGSLRLSCAASGSTFGPYAMGWYRQAPGKERELVAAITLSGGSTYYADSVKGRFTISRDYAKNTVYLQLNRLKPEYTAVYYCAAEYDRVDEDDYWGQGTQVTVSS | high polyreactivity
40 | QVQLVESGGGLVQAGGSLLLSCAASGITFYGNAKGWDRQAPGKERELVAAITFSGGITYYADSVKGRFTISRDNAKNTVYLQMNRLKPEDTAVYYCATDPIGGWTRPQRYGDDYWGQGTQLTVSS | low polyreactivity
41 | QVKLVESGGVLVQAGGSLRLSCAASGSIFVYNAMGWYRQAPGKERELVAAISQRGGSTYYADSVKGRFTISRDNAKNSVYLQMNSLKPEDTAVYYCAAGPGDSGDDYWGQGSQVTVSS | low polyreactivity
42 | QVQLVESGGGLVQAGGSLRLSCAASGFIFHQNAMGWYRQAPGKERELVAAITRSGTSTYYADSVKGRFTISRDNAKNTVYLQMNSLKPEDTAVYYCAACLPYGYGYDYWGQGTEVTVSS | low polyreactivity
43 | QVQLVESGGGLVQAGGSLRLICAASGTTFPRYAMGWYRKAPGKERELVAAITRSGANTHYADSVKGRFTIPRDNAKNTVYLQMTSLKPEDTAVYYCAARIYWGYGTRYYYWGQGTQVTVSS | high polyreactivity
